Experimental findings from the DeepSol protein solubility set are described below.

The nature of the data set: soluble on expression in E. coli; label from the status in PepcDB or PDB records.
Consider “MEQHPIKINKVQIRNLQIEDYAQLSQSFTRVYSDGSDVFWTHAQIKKLISIFPEGQIVTVVDDKIVGCALSIILDYDKVKNDHTYAQVTGKETFNTHNPEGNILYGIEVFIHPGYRGLRLARRMYEYRKELCETLNLKAIMFGGRIPNYHKYADKMRPKEYIARVRQREIYDPVLTFQLSNDFHVRKVMTNYLPNDEESKHYACLLQWDNIYYQPPTQEYINPKTTVRVGLVQWQMRSYKTLDDLFEQVEFFVDAVSDYKSDFVLFPEYFNAPLMSKFNDKGESQAIRGLAKYTDEIRDRFINLAISYNINIITGSMPYVKEDGLLYNVGFLCRRDGTYEMYEKMHVTPDEIKSWGLSGGKLLQTFDTDCAKVGVLICYDVEFPELSRLMADQGMQILFVPFLTDTQNAYSRVRVCAQARAIENECFVVIAGCVGNLPRVHNMDIQYAQSGVFTPCDFAFPTDGKRAEATPNTEMILVSDVDLDLLNALHTYGSVRNLKDRRNDVYEVRFKK”, for which the “soluble on expression in E. coli” value is on record as “not soluble”. In the case of “SMTIGRAKVYATLSKIFYHLFYDEAIPKDCREIIEKFGEIDFNLRSVLVRELRGSVLIKDMPQSLAEVYESVMKDFYERYGFQASELHADHIAVELAFMSKLVEREISLAQQMKEEELYKIRAAQHRFIKAHLQPLVKNLPSAPLLNFVRDFVREDAKYLYSSLVGEKNEGADNN”, the “soluble on expression in E. coli” value is on record as “soluble”.

“MGHHHHHHSHMRTISFFNNKGGVGKTTLSTNVAHYFALQGKRVLYVDCDPQCNATQLMLTEEQTESIYLDGLNDEVAERNSLAKTVYAIFVPLREGESQIAAEITPMRSERFGVDVLPGHPALSQIEDLMSDSWQSALGRQTGPFRRIHWAGQLAHAMERDDRYDVIFFDVGPSLGPFNRTVLLGCDAFVTPTATDLFSFHAFGNLARWFDAWVTQYAEIHEGNMAEWKKYS”: the “soluble on expression in E. coli” value was “not soluble”.

For “MNDKEKIYNQLHHDAPIQIMPAPENLFVEYIEDGEVWYSPVVCIALSKAHNINFYDSDDVGCIDKAATCSIKKFNPETGEFEQFSKMAQKEITQ”, the “soluble on expression in E. coli” value is “not soluble”. In the case of “MATASQRNFLAVPDWLDAAILISDEQTSDIFDLAWDMDDFWVFGYGSLMWNPGFAFEERQQARLHGYRRSLCISSNFYRGTEEKPGLVLGLERGGSCLGVAFRVRGKDHDPVMAYLRERELVTNVYKERVVSIALANGRRGSAVTYVADPAHEQYIGGLGVAESAVIIAAATGRSGPNTDYLFNTVQHLQEMGIRDSLLESIAASVGTLSAQSAVVSLPLEHHHHHH” it was “not soluble”; in that of “MSLIARDAHEGQFRSSGEPYITHPVAVASIIAQLHLDHEAVMAALLHDVIEDTPYTEEQLKEEFGASVAEIVDGVSKLDKLKFRTRQEAQVENFRKMILAMTRDIRVVLIKLADRTHNMRTLGSLRPDKRRRIAKETLEIYCPLAHRLGIEHIKNELEDLSFQAMHPHRYEVLKKLVDVARSNRQDLIERISQEIKVRLENSGIFARVWGREKHLYKIYQKMRIKDQEFHSIMDIYAFRVIVKNVDDCYRVLGQMHNLYKPRPGRVKDYIAVPKANGYQSLQTSMIGPKGVPVEVHIHTEDMEQVAEMGITAHWVYKENGKNDSTTAQIRVQRWLQSLVEIQQSVGNSFEFIENVKSEFFPKEIYVFTPKGRIVELPMGATAVDFAYAVHSDVGNTCVGVTVEHKPYPLSKALESGQTVNIITDPNAHPEVAWLNFVVTARAKTRIRHYLKQRCEEDAVKLGEVELNVALQPHNLGDFSIQQIRTVLDALALSSLDELLREIGLGNQSASMIAHQFVGVPLESANTKNLEFESKILTIAPMQVGKTQFAQCCHPILGDPIVGCCTEKNTVVVHHQHCASLKNACRQSLAKWDNVQSAVNFEAELQIEILNEQNALLSLMTAISASESSLQNIWTEELENNLLLVILQVCVKDIKHLANIVHRIKGITGVVNVKRNINELEGHHHHHH”, “not soluble”; in that of “MQIQKSFKGQSPYGKLYLVATPIGNLDDMTFRAIQTLKEVDWIAAEDTRNTGLLLKHFDISTKQISFHEHNAKEKIPDLIGFLKAGQSIAQVSDAGLPSISDPGHDLVKAAIEEEIAVVTVPGASAGISALIASGLAPQPHIFYGFLPRKSGQQKQFFGLKKDYPETQIFYESPHRVADTLENMLEVYGDRSVVLVRELTKIYEEYQRGTISELLESIAETPLKGECLLIVEGASQGVEEKDEEDLFVEIQTRIQQGVKKNQAIKEVAKIYQWNKSQLYAAYHDWEEKQ”, “not soluble”.

For “MSLNYTELEENIKKNNIENVYIMCGFNEKLMKESINKILKKSISQDFESLNYSVFDGNEVEFEDILNACETVPFMSEKRMVVVYRAGFLNDNSSGSNKNSDKLIKDIEKYVPNVPKHCILVMYYVFDNTREKPSYRVKKFDKKVCVVEFSKLRGMQFQKKVKDVFAEKGKQIGKTELNYFCSRVENNMDIVYNEIEKLCCYTLEKEITKESIDNLLQPNETDDIFNLVDYISQSKPEMAITVLNEIMYKGVKANSILYMVERQFKLMLSIKIGIENKQSKEALVKELKLNPYVCDKMINECKRFTMKKILKSLDICLRTEKELKSVSGDPKFKMEVLIINLAIEGHHHHHH”, the “soluble on expression in E. coli” value is given as “soluble”. With “SLSAASILVVDDEESLRITLAANLELEGHLVLEASSGDEALRLLRERAVDVVLTDIRMPGLHGVELHRHLRREHPGLPVVLMTAFAQESLINDALAEGAFTVLPKPFDVEHLLETLRREG”, the “soluble on expression in E. coli” value was “soluble”. “MAHHHHHHMRKIYIAGPAVFNPDMGASYYNKVRELLKKENVMPLIPTDNEATGALDIRQKNIQMIKDCDAVIADLSPFRGHEPDCGTAFEVGYAAALNKMVLTFTSDRRNMREKYGSEVDKDNLRVEGFGLPFNLMLYDGVEVFDSFESAFKYFLANFPSK”: the “soluble on expression in E. coli” value is on record as “soluble”. As to “MGHHHHHHSHMKNLFLTSSFKDVVPLFTEFESNLQGKTVTFIPTASTVEEVVFYVEAGKKALEKLGLFVVELDVATESLDHIAATLRKNDFIYVTGGNTFFLLQELKRTGADKLILEEIAAGKLYIGESAGAVITSPNIAYIQSMDSPKKAEQLTNYDALNLVDFCTLPHYNNIPFKKITQKIVADYTKSLKMHPISNHEAILVRDEEVITKLANGKTD”, the “soluble on expression in E. coli” value is reported as “soluble”. In the case of “MGDKQFAVIGLGRFGLAVCKELQDSGSQVLAVDINEDRVKEAAGFVSQAIVANCTHEETVAELKLDDYDMVMIAIGADVNASILATLIAKEAGVKSVWVKANDRFQARVLQKIGADHIIMPERDMGIRVARKMLDKRVLEFHPLGSGLAMTEFVVGSRLMGKTLSDLALCKVEGVQVLGFKRGPEIIKAPDMSTTLEIGDLIIVVGPQDKLANKLKSLEHHHHHH” it was “soluble”.

For the sequence “MSPESSNQTTSLSSFLLKCAFPDGTVPINIAPQSLSLSSSPGSYDGDQFSPLMKQHKSRKYDSCTISDDLHDEMKRLKKKEEAFKTALCGFQRRGQKCIYGEQCKFAHSVHELRFTQAKKTHRNYKTVLCDKFSTTGYCKYGARCQFIHRALGSTSTTESAEMADFKLNVESDLSRAFALDYTSFLPNWHCSALLH”, the “soluble on expression in E. coli” value was “not soluble”. In the case of “MGSDKIHHHHHHMRHFIYQDEKSHKFRAVEQQGNELHISWGKVGTKGQSQIKSFSDAAAAAKAELKLIAEKVKKGYVEQAKDNSLQPSQTVTGSLKVADLSTIIQEQPSFVAETRAPDKNTDAVLPWLAKDIAVVFPPEVVHTTLSHRRFPGVPVQQADKLPQLRRLACSVSQRDNKTATFDFSACSLEWQNTVAQAISQIDGLKTTQLPSPVMAVLTALEMKCTRYKVREDVMDQIVQEGGLEYATDVIIHLQQIDIEWDYANNVIIILPSGIAPSYLEQYSRFE”, the “soluble on expression in E. coli” value is “not soluble”.

“MAVGLGPLPALHPVPGFELGISSAGIKRPGRKDVVVMRCAEGSSVAGVFTLNAFCAAPVILAKQRVQGTVRYLLTNTGNANAGTGEPGLVAARRTCEALAQLTGVDASAVLPYSTGVIGEPLPVEKIEGALQAALDDLSVDNWAAAATGIMTTDTLPKGASRQFTHDGVTITVTGISKGAGMIRPNMATMLGYIATDAKVSQSVLQDLIRDGANKSFNRLTIDGDTSTNDCCMLIATGQADLPEITEAKGLLFEALKKAVFDVCMEVAQAIVRDGEGATKFVTVEVNGGGNHQECLDVGYAVAHSPLIKTALFASDPNWGRILAAVGRAGVPDLDVSKIDVFLGGVCIASQGCRATTYTEEQGSAVMAEAEITIRIELGRGDCSETIWTTDLSHEYVKINAEYRTLEHHHHHH”: the “soluble on expression in E. coli” value was “not soluble”. In the case of “MAQSKPAYKVADIKLADFGRKEIILAENEMPGLMAMRSKYGPSQPLKGARIAGCLHMTIQTAVLIETLTALGAEVQWSSCNIFSTQDHAAAAIAQTGVPVYAWKGETDEEYEWCIEQTIVFKDGQPLNMILDDGGDLTNLVHAKYPQYLAGIRGLSEETTTGVHNLAKMLAKGDLKVPAINVNDSVTKSKFDNLYGIRESLPDGIKRATDVMLAGKVAVVAGYGDVGKGSAASLKAFGSRVIVTEIDPINALQAAMEGYEVTTLEEAAPKANIIVTTTGCKDIVTGKHFELLPNDAIVCNVGHFDCEIDVKWLNTNATKKDTIKPQVDRYTLKNGRHVILLAEGRLVNLGCATGHPSFVMSNSFTNQVLAQVELWTKFGTPQEYKLGLYVLPKTLDEEVAYLHLAQLGVKLTKLSDEQASYLGVPVAGPYKPDHYRY”, the “soluble on expression in E. coli” value is on record as “not soluble”. Consider “FERGHEFSFAQAVRLLRLLAAAQGREGACPCGVRVRPELSLSFPVADVARIERQSDGYRITARFLGLYGPSSPLPTFYTEELIDEEREDGSASRDFLDVLSHRIFDLWVAGDAKYRLFNRVVEDGSGDDLERLFCLAGLDLAQGQTVLPESGRWLRYVGLLGQVPRSALGLRTMVADALGVPVEVIPCQHRQVSIPPGQRLAVGIAASSLGIDTVVGTNLDDRLGMFRLCLGPLSREQFADLLPGAPGRSTLDLIVELYLDAPLAWDVELTLAPGETPEARLGACRGARVGWDTWLGV”, for which the “soluble on expression in E. coli” value is recorded as “not soluble”. Consider “MQQHEIRRFVERYFAANGCTFVEASDDYLTVQLTAEMDKELMNRPFYWHYIERTGGVPQPMRLTLITRASERTDKLKGERLHFGAPRLHQLFRSAQKRGSFIRLYEEPNAPLDGNAALHPWLGMNVTISYECDRKKDEIVSLGLHLISGTIVESFHERMRERRLTPKIPDYCFTISPLIKPRSGIGRLEQYIRSRIAADNHAWADEARRRWADDLALLDEFYKDCEEKPECYYIEKEALEKQYKPRITVSVINGGLFYLLPRSS”, for which the “soluble on expression in E. coli” value is on record as “not soluble”. Regarding “MRALAKLAPEEGLTLVDRPVPEPGPGEILVRVEAASICGTDLHIWKWDAWARGRIRPPLVTGHEFSGVVEAVGPGVRRPQVGDHVSLESHIVCHACPACRTGNYHVCLNTQILGVDRDGGFAEYVVVPAENAWVNPKDLPFEVAAILEPFGNAVHTVYAGSGVSGKSVLITGAGPIGLMAAMVVRASGAGPILVSDPNPYRLAFARPYADRLVNPLEEDLLEVVRRVTGSGVEVLLEFSGNEAAIHQGLMALIPGGEARILGIPSDPIRFDLAGELVMRGITAFGIAGRRLWQTWMQGTALVYSGRVDLSPLLTHRLPLSRYREAFGLLASGQAVKVILDPKA”, the “soluble on expression in E. coli” value is on record as “soluble”. For the sequence “MSLYPGQFAKTRPDHPAFIMASTGETVSYAELEARSNRLAHLLRNHGLQRLDHYSIFMENNNRYIEACAAGERSGYYYTCVNSYLTPAELAYILTNSESRALITSKAKLDVAREALKDCPNVTLCVVVDGDGESERIVGLAEATKNLPDTPIADESLGTAMLYSSGTTGRPKGILRPLPEQPPSEPLPLFHFLNMLWKYRDGMIYLSPAPLYHSAPQAAVGLTIRDGGTVIIMEHFDPEQYLALIGKHKVTHSQLVPTMFSRMLKLPEEARKTYDLSTLEVAIHAAAPCPPQVKEQMIEWWGPIIHEYYGATEGLGFTACNSAEWLAHRGTVGKVMFGDLHILDDGMKPCPKGTPGQIWFKTATPFEYFNDPKKTQEARSEDGSMSTVGDVGYVDDDGYLHLTDRATFMIISGGVNIYPQECENLLITHPKVADAAVFGVPNEDLGEEVKAVVQPMPGVAAGADLAAELIAFCAQSLSRQKVPRSIDFMDELPRLPTGKLYKRLLRDRYWGNKNSREGHHHHHH”, the “soluble on expression in E. coli” value is “soluble”.
